According to PMC4143292, “An Enzymatic Platform for the Synthesis of Isoprenoid Precursors” (PLoS ONE, 2014):

What was measured:
[1] = substrate: C[C@@](O)(CCO)CC(=O)O; test: PK/LDH-coupled NADH oxidation, progress curves; assay type: biochemical, Staphylococcus aureus; conditions: ATP 5.0 mM, MgCl2 1.0 mM + nucleotide, KCl 50 mM, Hepes pH 8.0, 25 C, apparent
Source text: PK/LDH-coupled NADH oxidation, progress curves on MVK (mevalonate kinase)

purified protein = substrate: CC(=O)O; test: purified protein; conditions: CoA 2.0 mM, ATP 4.0 mM, MgCl2 1.0 mM + nucleotide, KCl 50 mM, Hepes pH 8.0, 25 C, apparent
[2] = substrate: CC(C)(COP(=O)(O)OP(=O)(O)OC[C@H]1O[C@@H](n2cnc3c(N)ncnc32)[C@H](O)[C@@H]1OP(=O)(O)O)[C@@H](O)C(=O)NCCC(=O)NCCS; test: coupled NADH oxidation, progress curves; assay type: biochemical, Saccharomyces cerevisiae; conditions: acetate 2.0 mM, ATP 4.0 mM, MgCl2 1.0 mM + nucleotide, KCl 50 mM, Hepes pH 8.0, 25 C, apparent
Source text: coupled NADH oxidation, progress curves on ACS (acetyl-CoA synthetase)

B1: MVK (mevalonate kinase) (Staphylococcus aureus) (protein)
chain: MTRKGYGESTGKIILIGEHAVTFGEPAIAVPFNAGKIKVLIEALESGNYSSIKSDVYDGMLYDAPDHLKSLVNRFVELNNITEPLAVTIQTNLPPSRGLGSSAAVAVAFVRASYDFLGKSLTKEELIEKANWAEQIAHGKPSGIDTQTIVSGKPVWFQKGQAETLKTLSLDGYMVVIDTGVKGSTRQAVEDVHKLCEDPQYMSHVKHIGKLVLRASDVIEHHNFEALADIFNECHADLKALTVSHDKIEQLMKIGKENGAIAGKLTGAGRGGSMLLLAKDLPTAKNIVKAVEKAGAAHTWIENLGG
notes: N-terminal His9-GST tag removed with PreScission protease; expressed in E. coli BL21(DE3)
Question: With B1 as the protein, how does the Km [1] read?
Answer: The Km was 27 µM.

Question: And the kcat [1]?
Answer: The kcat was 19 s⁻¹.

B2: ACS (acetyl-CoA synthetase) (Saccharomyces cerevisiae S288C) (protein)
chain: MSPSAVQSSKLEEQSSEIDKLKAKMSQSAATAQQKKEHEYEHLTSVKIVPQRPISDRLQPAIATHYSPHLDGLQDYQRLHKESIEDPAKFFGSKATQFLNWSKPFDKVFIPDPKTGRPSFQNNAWFLNGQLNACYNCVDRHALKTPNKKAIIFEGDEPGQGYSITYKELLEEVCQVAQVLTYSMGVRKGDTVAVYMPMVPEAIITLLAISRIGAIHSVVFAGFSSNSLRDRINDGDSKVVITTDESNRGGKVIETKRIVDDALRETPGVRHVLVYRKTNNPSVAFHAPRDLDWATEKKKYKTYYPCTPVDSEDPLFLLYTSGSTGAPKGVQHSTAGYLLGALLTMRYTFDTHQEDVFFTAGDIGWITGHTYVVYGPLLYGCATLVFEGTPAYPNYSRYWDIIDEHKVTQFYVAPTALRLLKRAGDSYIENHSLKSLRCLGSVGEPIAAEVWEWYSEKIGKNEIPIVDTYWQTESGSHLVTPLAGGVTPMKPGSASFPFFGIDAVVLDPNTGEELNTSHAEGVLAVKAAWPSFARTIWKNHDRYLDTYLNPYPGYYFTGDGAAKDKDGYIWILGRVDDVVNVSGHRLSTAEIEAAIIEDPIVAECAVVGFNDDLTGQAVAAFVVLKNKSSWSTATDDELQDIKKHLVFTVRKDIGPFAAPKLIILVDDLPKTRSGKIMRRILRKILAGESDQLGDVSTLSNPGIVRHLIDSVKL
Question: Which results are given for B2?
Answer: Km (purified protein): 280 µM; kcat (purified protein): 10 s⁻¹; Km [2]: 240 µM; kcat [2]: 10 s⁻¹
